Experimental data reported in paper PMC12990809.

Tests used:
Assay in all cases: pulldown
[1] = molecular target: T1, SCHCODRAFT_35516 S109T;I250V (Schizophyllum commune) (UniProt A0ACF2EGB7); details: 20 nM protein, 1.5 uM RNA pool; 20 mM HEPES pH 7.8, 70 mM KCl, 10 mM NaCl, 10% glycerol, 2 mM DTT, 0.1 ug/uL BSA; 30 min, 4 C
T1 sequence: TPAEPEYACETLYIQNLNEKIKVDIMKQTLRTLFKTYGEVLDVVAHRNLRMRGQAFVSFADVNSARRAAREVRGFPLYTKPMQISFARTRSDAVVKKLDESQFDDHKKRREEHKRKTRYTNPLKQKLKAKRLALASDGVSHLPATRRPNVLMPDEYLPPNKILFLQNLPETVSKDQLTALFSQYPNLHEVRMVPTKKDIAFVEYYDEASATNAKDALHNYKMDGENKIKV

[2] = molecular target: T2, ENSMODG00000011916 (Monodelphis domestica) (UniProt F7E028); details: 20 nM protein, 1.5 uM RNA pool; 20 mM HEPES pH 7.8, 70 mM KCl, 10 mM NaCl, 10% glycerol, 2 mM DTT, 0.1 ug/uL BSA; 30 min, 4 C
T2 sequence: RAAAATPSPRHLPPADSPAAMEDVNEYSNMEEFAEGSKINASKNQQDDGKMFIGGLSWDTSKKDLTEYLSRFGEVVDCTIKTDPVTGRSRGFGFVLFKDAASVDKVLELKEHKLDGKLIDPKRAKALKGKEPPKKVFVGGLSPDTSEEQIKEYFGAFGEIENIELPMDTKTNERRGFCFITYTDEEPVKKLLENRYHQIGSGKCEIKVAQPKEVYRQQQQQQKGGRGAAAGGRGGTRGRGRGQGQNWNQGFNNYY

[3] = molecular target: T3, LmjF.33.1450 (Leishmania major) (UniProt Q4Q442); details: 20 nM protein, 1.5 uM RNA pool; 20 mM HEPES pH 7.8, 70 mM KCl, 10 mM NaCl, 10% glycerol, 2 mM DTT, 0.1 ug/uL BSA; 30 min, 4 C
T3 sequence: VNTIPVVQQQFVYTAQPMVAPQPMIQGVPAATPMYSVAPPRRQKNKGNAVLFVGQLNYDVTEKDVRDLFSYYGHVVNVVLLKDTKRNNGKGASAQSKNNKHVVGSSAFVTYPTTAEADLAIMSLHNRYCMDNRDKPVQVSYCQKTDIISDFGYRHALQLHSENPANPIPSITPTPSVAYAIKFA

[4] = molecular target: T4, LmjF.29.1340 (Leishmania major) (UniProt E9ADZ3); details: 20 nM protein, 1.5 uM RNA pool; 20 mM HEPES pH 7.8, 70 mM KCl, 10 mM NaCl, 10% glycerol, 2 mM DTT, 0.1 ug/uL BSA; 30 min, 4 C
T4 sequence: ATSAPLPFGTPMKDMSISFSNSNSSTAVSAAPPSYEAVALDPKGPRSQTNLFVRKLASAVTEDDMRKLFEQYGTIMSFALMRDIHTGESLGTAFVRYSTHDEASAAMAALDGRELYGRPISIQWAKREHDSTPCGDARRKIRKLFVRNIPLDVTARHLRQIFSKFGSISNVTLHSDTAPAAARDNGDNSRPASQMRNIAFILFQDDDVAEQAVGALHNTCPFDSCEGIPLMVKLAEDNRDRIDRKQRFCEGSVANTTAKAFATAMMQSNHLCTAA

[5] = molecular target: T5, NEMVEDRAFT_v1g141408 (Nematostella vectensis) (UniProt A7T170); details: 20 nM protein, 1.5 uM RNA pool; 20 mM HEPES pH 7.8, 70 mM KCl, 10 mM NaCl, 10% glycerol, 2 mM DTT, 0.1 ug/uL BSA; 30 min, 4 C
T5 sequence: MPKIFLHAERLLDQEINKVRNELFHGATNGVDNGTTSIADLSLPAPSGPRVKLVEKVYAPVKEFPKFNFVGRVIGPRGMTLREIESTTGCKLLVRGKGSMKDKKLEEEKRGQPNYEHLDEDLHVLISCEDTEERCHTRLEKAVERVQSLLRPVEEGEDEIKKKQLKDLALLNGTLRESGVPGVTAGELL

[6] = molecular target: T6, LmjF.29.1350 (Leishmania major) (UniProt E9ADZ4); details: 20 nM protein, 1.5 uM RNA pool; 20 mM HEPES pH 7.8, 70 mM KCl, 10 mM NaCl, 10% glycerol, 2 mM DTT, 0.1 ug/uL BSA; 30 min, 4 C
T6 sequence: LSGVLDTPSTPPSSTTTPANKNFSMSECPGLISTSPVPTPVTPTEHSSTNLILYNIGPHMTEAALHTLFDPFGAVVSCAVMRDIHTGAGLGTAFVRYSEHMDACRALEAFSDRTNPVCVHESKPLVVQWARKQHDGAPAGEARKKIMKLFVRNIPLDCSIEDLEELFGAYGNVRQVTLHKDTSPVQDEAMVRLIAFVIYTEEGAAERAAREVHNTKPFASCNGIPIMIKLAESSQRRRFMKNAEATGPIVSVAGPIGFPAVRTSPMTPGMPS

[7] = molecular target: T7, LmjF.29.1360 (Leishmania major) (UniProt E9ADZ5); details: 20 nM protein, 1.5 uM RNA pool; 20 mM HEPES pH 7.8, 70 mM KCl, 10 mM NaCl, 10% glycerol, 2 mM DTT, 0.1 ug/uL BSA; 30 min, 4 C
T7 sequence: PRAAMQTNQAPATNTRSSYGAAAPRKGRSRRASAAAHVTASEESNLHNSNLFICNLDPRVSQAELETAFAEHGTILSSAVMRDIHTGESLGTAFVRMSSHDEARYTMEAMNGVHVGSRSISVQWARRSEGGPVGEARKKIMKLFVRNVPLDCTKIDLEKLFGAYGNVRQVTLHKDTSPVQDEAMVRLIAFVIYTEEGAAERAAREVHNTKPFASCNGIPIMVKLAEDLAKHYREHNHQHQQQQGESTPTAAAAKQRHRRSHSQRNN

ELAVL1 (Homo sapiens) = ELAVL1 (Homo sapiens) (UniProt Q15717); details: 20 nM protein, 1.5 uM RNA pool; 20 mM HEPES pH 7.8, 70 mM KCl, 10 mM NaCl, 10% glycerol, 2 mM DTT, 0.1 ug/uL BSA; 30 min, 4 C (protocol of this paper; not …); cited from earlier work
Sequence of ELAVL1 (Homo sapiens) (Q15717 1-325): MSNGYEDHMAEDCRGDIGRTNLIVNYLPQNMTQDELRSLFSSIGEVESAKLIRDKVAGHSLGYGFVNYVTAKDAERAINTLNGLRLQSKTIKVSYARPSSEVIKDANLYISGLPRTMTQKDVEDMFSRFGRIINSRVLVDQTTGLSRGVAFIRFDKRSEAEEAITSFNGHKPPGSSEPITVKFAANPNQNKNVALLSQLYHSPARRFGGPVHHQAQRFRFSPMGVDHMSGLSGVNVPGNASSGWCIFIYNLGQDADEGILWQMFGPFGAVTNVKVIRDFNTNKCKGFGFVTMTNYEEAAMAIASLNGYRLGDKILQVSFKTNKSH

[8] = molecular target: T8, PK10695.1 (Cannabis sativa) (UniProt A0A803NZQ3); details: 20 nM protein, 1.5 uM RNA pool; 20 mM HEPES pH 7.8, 70 mM KCl, 10 mM NaCl, 10% glycerol, 2 mM DTT, 0.1 ug/uL BSA; 30 min, 4 C
T8 sequence: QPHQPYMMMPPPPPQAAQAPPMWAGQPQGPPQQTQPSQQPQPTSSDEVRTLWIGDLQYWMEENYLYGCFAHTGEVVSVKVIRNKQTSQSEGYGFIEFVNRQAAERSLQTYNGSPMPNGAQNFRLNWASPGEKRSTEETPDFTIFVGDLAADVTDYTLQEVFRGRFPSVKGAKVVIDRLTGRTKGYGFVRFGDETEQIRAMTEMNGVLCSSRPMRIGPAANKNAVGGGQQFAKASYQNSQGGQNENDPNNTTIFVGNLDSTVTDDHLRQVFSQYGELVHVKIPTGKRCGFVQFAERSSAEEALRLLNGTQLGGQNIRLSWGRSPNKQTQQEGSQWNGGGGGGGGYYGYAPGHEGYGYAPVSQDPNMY

Sequence UAGCACA [RNAcompete motif RNCMPT00725] has a binding signal (z-score (mean of top ten 7-mers)) [1] of 10.8.
AGAUAAA [RNAcompete motif RNCMPT00707] gave a binding signal (z-score (mean of top ten 7-mers)) [2] of 8.36.
For UUGCAGU [RNAcompete motif RNCMPT00717], the binding signal (z-score (mean of top ten 7-mers)) [3] was 21.8.
In the case of CAUAGU [RNAcompete motif RNCMPT00712], the binding signal (z-score (mean of top ten 7-mers)) [4] is reported as 16.4.
Sequence ACUAAC [RNAcompete motif RNCMPT00718] has a binding signal (z-score (mean of top ten 7-mers)) [5] of 18.9.
Work on CAUAGU [RNAcompete motif RNCMPT00713] yielded a binding signal (z-score (mean of top ten 7-mers)) [6] of 24.5.
UAUAGU [RNAcompete motif RNCMPT00714] showed a binding signal (z-score (mean of top ten 7-mers)) [7] of 20.4.
For UUAUUUU [RNAcompete motif RNCMPT00032], the binding signal (z-score (mean of top ten 7-mers)) (ELAVL1 (Homo sapiens)) is listed as 15.
In the case of UUUAUUUU [RNAcompete motif RNCMPT00741], the binding signal (z-score (mean of top ten 7-mers)) [8] is reported as 10.2.
